Assay results reported in the DeepSol protein solubility set.

Assay: soluble on expression in E. coli; label from the status in PepcDB or PDB records

Soluble on expression in E. coli, not soluble:
MGSDKIHHHHHHMNKIAVIGKVFVDIKGTSFAPLHKDAKNVGDITFSNGGTGRNVAQNLAVLGNDVRFISTVTNDQIGVGVLEELKSYGANVDHVEMLEDHGMGMWLAVMDNEGDLQTSISKQPDAKLLEEAILRQSVYALDGVDAVAIDLDLSVTVLERLIHICRKMELPLYGVCGHLSVIERNRHLLQGFTGFICSREEAEILSDLSIVTVEDAIHVANELAKKGAPFTVVTMSELGAVYVDRRTATSGHVGTKKVKVVDSTGAGDSFFSAVLSELTESKRAEEALQLGMKVAAQVIASTENGLIPEMLETLR, MGSDKIHHHHHHMNKIVSFFILILVCSCSDRKEHIANILSMNSIDIKTNRINKDEVIARGAFPFEMIDSLFFLFNGDPSSGALVLCESNASELGHFLQKGNGFGECITPGYIGHCNDTIYVSERSRTRRMTYLLSNHNDSLQYKCLEDVSPKMNSEFYYQICRLQSGLFVGARLFGKEHLFTLLDESLDTLTTFARVPIDIEENANNKLAPFIGHLCIDDNTVYYASNDFSYMAAYDILSEKEIKPVFERMYISPIIQKSANGISLDKYKHLLGFGDIRVYQNYIFATYIGKPDITMDQENDISALVPTHLLVFNKDGVPIVKFKFPFKIRSFVFTKSKMYLLDVDCNIESVDLVELWKHLPD, MGSDKIHHHHHHMNLRHLVFFKELARTQHMAKAAENLGISQPSLSYAIKKLEHELGVPLFEADGRNIKLTSIGGVYLKYVTATLNDLSQGNELVKQLMDPDTGHVKLGFTYTLGQQLVPELLSHFKNQSENQAITFELGQGNSGVLLQALADEKYDIVLASNVDRLGEQLTAHLFDFIPLVQQEIVAVVPNDHPAVQKNPLHVEDLAPYPMILFSQNSGLRPLIDQILSAAHVQPKVAYEVEEDYTMAGFVRYNMGVALMPYLPLLNPERVQIKHLADQPLQHQIYLVVRRSGFITPAVHRFQEFIRSYCWQHYTNQERSI, MGSDKIHHHHHHMNMLVRFFIMVSLLKQQLNKQLATEYLSVERLMAPVVRHYRVLPHDMGFRDHLPNYRYLSFIELNITNWLMACCHQKGIKNLGWIIAMQEMVYLKQIKFLDKMTVNSRVVGWDKKYVYFEHQFFVKNQLMAMGMTKFVLTNKQGKCATEVLDMTGEQLNEVIDTWSQHQVAIKSAKSTESTKAA, MGSDKIHHHHHHMNNKDLWIKEEIIWSEHKCIRFAAGGYEALIIPDVGGNVVELKDTNKGVTILRTPKKDLKFEDFKNRPQVYGLPVLFPPNRIDDGTFKLGDKTYKFPINEAKNNNYIHGFIKNSKWTVHKKKIDQDKALVEVVFDFTKENEAYKYFSHEFQFKLSYELSSKGLKQTTSVVNLSSEEMPLSVGYHSAFNVPFIEGSEDSNCRVKISIDKFWKQDSRNLPTGESFAPTGEQKEYLENGVAVASHPIESLFSLKDIDVNGKTFRGACIEDASKNTRVVYEMSSEYKYLVIWNDMGDKKYACIEPQTSIINSPNVKLDRSVSGFKTLKPNESWSGVCKLYIENM, MGSDKIHHHHHHMNNSEKMLVCLDQQDLDKADKYFKRALVQDDSETLLSLAAYLEGIGFFPQARQIYEQVKEEFPEVLINLAQIAFEDGLVEEAFRYLEEISEDSSIYVEALLVKADLYQAEGLSDVAREKLLEASHLSDKPIILFGLAELDMELELFNEAISYYAQLDNREIYELTGISTYQRIGIAYASLGKFEAAIEFLEKAVELEYDDQTVFELAALLFEREEYQKANLYFKQLDTINPDFEGYEYAYAQSLHAEHKIDDALAMTQKGLAKNDFDANLLFQASQYAYELHDEAGAEDYLLRAKEVADDSNELALRLSNLYLEQERFEEVVALFDEEVDNVLARWNKAKAYQALERDDEAIALYDELAGELAENPEFLADYVAVLRQLGRLDEAKEQASRYIQLVPDDLAMQEFLNEE, MGSDKIHHHHHHMNQATRNVLWMTGIKKSFSGVPALWGVDFELKAGEIHALVGENGAGKSTLIKIMTGAYRRDSGVMEYDQKTVAFENPIQAQAAGIVAVYQEIQLVGLRTVAENIFLSREPNRFGIIDRRAMNARAADILKRLGLHIDPHSVVGSLNIAHRQMVAIARAISFGARVLILDEPTSSLTKTEVSVLFDVMRRLKSEGTSIVYISHRFEELYTVCDRVTVLRDGRNIVTRSLSMLTRLELVCFMLGRKPEEVSKRVTAFARQSQNMLGQPVLLQAEALKYKKRLNGVSIEVQHGEIVGLAGLLGSGRSETVRALFGAEPLEGGTVKLEGSLLSLRDPHDAIDAGIAFLSEDRKADGIIPELSVRENLTLAALPNLTQWGIVSKKRQSELALRFMERLDIKAASIEQKIRFYTNSGCNYDSSDRGSFLLYPLYAFRPSYRCSRRQRGGCTACGYPCGAREIYSLYN
